{"source": "paper PMC8152684", "substrate": "NC(=O)C[C@H](N)C(=O)O", "assay": "purified protein", "conditions": "free enzyme in solution, 50 mM Tris-HCl pH 8.6, 37 °C"}
{"protein": "L-asparaginase (Asp) (Escherichia coli K-12) (protein) LPNITILATGGTIAGGGDSATKSNYTVGKVGVENLVNAVPQLKDIANVKGEQVVNIGSQDMNDNVWLTLAKKINTDCDKTDGFVITHGTDTMEETAYFLDLTVKCDKPVVMVGAMRPSTSMSADGPFNLYNAVVTAADKASANRGVLVVMNDTVLDGRDVTKTNTTDVATFKSVNYGPLGYIHNGKIDYQRTPARKHTSDTPFDVSKLNELPKVGIVYNYANASDLPAKALVDAGYDGIVSAGVGNGNLYKSVFDTLATAAKTGTAVVRSSRVPTGATTQDAEVDDAKYGFVASGTLNPQKARVLLQLALTQTKDPQQIQQIFNQY", "values": [{"measurement": "Km", "result": 0.14, "unit": "mM"}]}
